Results on three molecules are retold here after patent publication US20200317768A1 (published 2020).

The chains are these.
B1: M103205H795-MY329 / M103202L889-SK1 (antibody, human IgG1, kappa)
heavy: QVTLKESGPVLVKPTETLTLTCTVSGIDLSHDDISWVRQAPGKGLEWVGIISYAGSTYYASWAKGRLTISKDTSKNQVVLTMTNMDPVDTATYYCARGVPAYSHGGDLWGQGTLVTVSSASTKGPSVFPLAPSSKSTSGGTAALGCLVKDYFPEPVTVSWNSGALTSGVHTFPAVLQSSGLYSLSSVVTVPSSSLGTQTYICNVNHKPSNTKVDKKVEPKSCDKTHTCPPCPAPELLDGPSVFLFPPKPKDTLMISRTPEVTCVVVDVSDEDPEVKFNWYVDGVEVHNAKTKPREELYNSTYRVVSVLTVLHQDWLNGKEYKCKVSNKALPKPIEKTISKAKGQPREPQVYTLPPSREEMTKNQVSLTCLVKGFYPSDIAVEWESNGQPENNYKTTPPVLDSDGSFFLYSKLTVDKSRWQQGNVFSCSVMHEALHNHYTQKSLSLSP
light: DIVMTQSPATLSLSPGERATLSCTSSQSVYHANWLSWFQQKPGQPPKLLIYWASTLAYGVPSRFSGSGSGTDFTLTISSLQPEDAATYYCAGGYGGGRYAFGQGTKVEIKRTVAAPSVFIFPPSDEQLKSGTASVVCLLNNFYPREAKVQWKVDNALQSGNSQESVTEQDSKDSTYSLSSTLTLSKADYEKHKVYACEVTHQGLSSPVTKSFNRGEC
notes: Fc variant made by introducing the substitutions into M103205H795-SG1; the list of substitutions runs over r151c2 and r152c2; Expressed with M103202L889-SK1 as light chain
B2: M103205H795-MY325 / M103202L889-SK1 (antibody, human IgG1, kappa)
heavy: B1 heavy with L297Q
light: B1 light
notes: expressed with M103202L889-SK1 as light chain
B3: M103205H795-MY327 / M103202L889-SK1 (antibody, human IgG1, kappa)
heavy: B1 heavy with D270E
light: B1 light
notes: Fc variant made by introducing the substitutions into M103205H795-SG1; the list of substitutions runs over r149c2 and r150c2; Expressed with M103202L889-SK1 as light chain

Residue numbers refer to the chain shown, from its start.

For one test, the target named is T1, human FcγRIIaR extracellular domain, His-tagged (human, UniProt P12318 34-217).
T1 construct: also called human FcγRIIa (type R); FcgRIIaR; not shown: His-tag added to the C-terminus
T1 chain: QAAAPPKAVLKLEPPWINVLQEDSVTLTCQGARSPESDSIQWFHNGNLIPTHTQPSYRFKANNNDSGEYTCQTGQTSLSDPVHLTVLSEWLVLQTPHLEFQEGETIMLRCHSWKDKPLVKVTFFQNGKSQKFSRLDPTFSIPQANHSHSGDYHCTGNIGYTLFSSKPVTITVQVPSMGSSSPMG
In words: SPR (BIACORE), antibody captured on chip, FcγR as analyte, 25 C; KD of SG1 divided by KD of the variant. How it is done: (§1) After the measurement, the antibody captured on the chip was washed off by allowing reaction with 10 mM glycine-HCl, pH1.5 and 25 mM NaOH so that the chip was regenerated and used repeatedly. The sensorgrams obtained as measurement results were analyzed by the 1:1 Langmuir binding model using the BIACORE® Evaluation Software to calculate the binding rate constant ka (L/mol/s) and dissociation rate constant kd (l/s), and the dissociation constant KD (mol/L) was calculated from these values. […] Regarding such interactions, KD values were calculated using the following 1:1 binding model described in BIACORE® T100 Software Handbook BR1006-48 Edition AE.
(§2) The behavior of interacting molecules according to the 1:1 binding model on BIACORE® can be described by Equation 1: Req=C·R max/(KD+C)+RI, wherein, Req is a plot of steady-state binding levels to analyte concentration. C is concentration, RI is bulk refractive index contribution in the sample, and Rmax is analyte binding capacity of the surface. When this equation is rearranged, KD can be expressed as Equation 2: KD=C·Rmax/(Req−RI)−C. KD can be calculated by substituting the values of Rmax, RI, and C into Equation 1 or Equation 2. From the current measurement conditions, RI=0, C=2 μmol/L can be used.
On to B1, for which the “KD fold for humanFcgRs (SG1 = 1)” value was 5.2 fold.

With B2, the “KD fold for humanFcgRs (SG1 = 1)” value was found to be 3.7 fold.

As for B3, the “KD fold for humanFcgRs (SG1 = 1)” value was found to be 3.3 fold.

A further test has as its target T2, human FcγRIIb extracellular domain, His-tagged (human, UniProt P31994 43-217).
T2 construct: also called FcgRIIb (human); not shown: His-tag added to the C-terminus
T2 sequence: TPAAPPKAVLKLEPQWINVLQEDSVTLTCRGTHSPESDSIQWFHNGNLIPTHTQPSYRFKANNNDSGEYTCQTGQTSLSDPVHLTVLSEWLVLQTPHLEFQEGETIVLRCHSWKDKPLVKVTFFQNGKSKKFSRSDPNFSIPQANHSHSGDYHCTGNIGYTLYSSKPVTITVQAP
The description is as above. How it is done: as §1, §2
On to B1, for which the “KD fold for humanFcgRs (SG1 = 1)” value stood at 28.8 fold.

Take B2: the “KD fold for humanFcgRs (SG1 = 1)” value came out at 17.7 fold.

Regarding B3, the “KD fold for humanFcgRs (SG1 = 1)” value was determined as 27 fold.

For another test, the target named is T3, human FcγRIIIaV extracellular domain, His-tagged (human, UniProt P08637 17-208).
T3 construct: also called human FcγRIIIa (allotype V158); FcgRIIIaV; not shown: His-tag added to the C-terminus
T3 sequence (P08637 17-208 F176V): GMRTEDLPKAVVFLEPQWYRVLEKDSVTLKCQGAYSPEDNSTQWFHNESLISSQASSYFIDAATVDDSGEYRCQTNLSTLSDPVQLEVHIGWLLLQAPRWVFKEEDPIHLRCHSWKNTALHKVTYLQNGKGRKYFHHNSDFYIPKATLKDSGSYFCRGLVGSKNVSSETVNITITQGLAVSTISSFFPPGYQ
The test is described as above. How it is done: as §1, §2
Regarding B1, the “KD fold for humanFcgRs (SG1 = 1)” value worked out at 0.13 fold.

B2: the “KD fold for humanFcgRs (SG1 = 1)” value is 0.1 fold.

For the molecule B3, the “KD fold for humanFcgRs (SG1 = 1)” value amounted to 0.08 fold.

Another test addresses T4, cynomolgus monkey FcγRIIa1 extracellular domain, His-tagged (cynomolgus monkey).
T4 construct: also called cyno FcγRIIa1; FcgRIIa1; not shown: His-tag added to the C-terminus
T4 chain: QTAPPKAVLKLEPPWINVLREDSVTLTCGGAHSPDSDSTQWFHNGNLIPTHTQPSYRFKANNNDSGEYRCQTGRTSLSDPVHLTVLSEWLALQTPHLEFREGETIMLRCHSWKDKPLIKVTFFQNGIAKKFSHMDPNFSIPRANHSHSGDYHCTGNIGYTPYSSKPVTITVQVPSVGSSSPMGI
Described as above. How it is done: as §1, §2
Take B1: the “KD fold for cynoFcgRs (SG1 = 1)” value is 1.7 fold.

B2: the “KD fold for cynoFcgRs (SG1 = 1)” value is 0.8 fold.

Turning to B3, the “KD fold for cynoFcgRs (SG1 = 1)” value turned out to be 0.9 fold.

A further test deals with T5, cynomolgus monkey FcγRIIa2 extracellular domain, His-tagged (cynomolgus monkey).
T5 construct: also called cyno FcγRIIa2; FcgRIIa2; not shown: His-tag added to the C-terminus
T5 chain: T4 chain with P95T, T121A, I127K, A128S, K130N, D135N, R142Q
Described as above. How it is done:
as §1, §2
Take B1: the “KD fold for cynoFcgRs (SG1 = 1)” value was 1.6 fold.

For B2, the “KD fold for cynoFcgRs (SG1 = 1)” value came out at 1.2 fold.

On to B3, for which the “KD fold for cynoFcgRs (SG1 = 1)” value came to 1.1 fold.

The target in another test is T6, cynomolgus monkey FcγRIIa3 extracellular domain, His-tagged (cynomolgus monkey).
T6 construct: also called cyno FcγRIIa3; FcgRIIa3; not shown: His-tag added to the C-terminus
T6 chain: T4 chain with P95T, T121A, A128S, H133P, D135N
Described as above. How it is done:
as §1, §2
Turning to B1, the “KD fold for cynoFcgRs (SG1 = 1)” value came out at 4.6 fold.

As to B2, the “KD fold for cynoFcgRs (SG1 = 1)” value was 2.9 fold.

For B3, the “KD fold for cynoFcgRs (SG1 = 1)” value turned out to be 3.2 fold.

The target of another test is T7, cynomolgus monkey FcγRIIb extracellular domain, His-tagged (cynomolgus monkey).
T7 construct: also called cyno FcγRIIb; cynoFcγRIIb; not shown: His-tag added to the C-terminus
T7 chain: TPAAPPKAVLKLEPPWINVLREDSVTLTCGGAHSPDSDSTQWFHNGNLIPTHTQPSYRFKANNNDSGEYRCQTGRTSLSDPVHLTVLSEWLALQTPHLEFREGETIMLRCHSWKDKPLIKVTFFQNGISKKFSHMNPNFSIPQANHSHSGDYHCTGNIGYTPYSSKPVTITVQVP
The test is described as above. How it is done:
as §1, §2
B1: the “KD fold for cynoFcgRs (SG1 = 1)” value is 3.1 fold.

B2: the “KD fold for cynoFcgRs (SG1 = 1)” value worked out at 1.8 fold.

Consider B3, for which the “KD fold for cynoFcgRs (SG1 = 1)” value was found to be 1.8 fold.

In another test the target is T8, cynomolgus monkey FcγRIIIaS extracellular domain, His-tagged (cynomolgus monkey, UniProt A3RFZ7 21-206 (rhesus entry)).
T8 construct: also called cyno FcγRIIIaS; FcgRIIIaS; not shown: His-tag added to the C-terminus
T8 sequence (A3RFZ7 21-206): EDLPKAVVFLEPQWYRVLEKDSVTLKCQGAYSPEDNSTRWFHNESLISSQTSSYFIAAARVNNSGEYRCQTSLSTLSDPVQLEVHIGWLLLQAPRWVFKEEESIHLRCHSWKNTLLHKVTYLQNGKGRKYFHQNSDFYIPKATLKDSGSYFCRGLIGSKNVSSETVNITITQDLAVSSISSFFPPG
The description is as above. How it is done: as §1, §2
For B1, the “KD fold for cynoFcgRs (SG1 = 1)” value was 0.16 fold.

As for B2, the “KD fold for cynoFcgRs (SG1 = 1)” value was 0.09 fold.

Regarding B3, the “KD fold for cynoFcgRs (SG1 = 1)” value worked out at 0.08 fold.

A further test concerns the target T9, human FcγRIIaH extracellular domain, His-tagged (human, UniProt P12318 34-217).
T9 construct: also called human FcγRIIa (type H); FcgRIIaH; not shown: His-tag added to the C-terminus
T9 sequence: T1 chain with R134H
The test is described as above. How it is done:
as §1, §2
With B1, the “KD fold for humanFcgRs (SG1 = 1)” value was found to be 2.6 fold.

Take B2: the “KD fold for humanFcgRs (SG1 = 1)” value turned out to be 1.4 fold.

In the case of B3, the “KD fold for humanFcgRs (SG1 = 1)” value amounted to 2 fold.
